The record followed here is PMC12459405, “From disorder to icosahedral symmetry: How conformation-switching subunits enable RNA virus assembly” (Science Advances, 2025).

The data set concerns the molecule itself. The data set can be described thus: cryo-TEM + other: SAXS; in vitro assembly: purified CCMV capsid proteins mixed with in vitro transcribed RNA (C2, 2767 nt, or RF2, 2687 nt) and dialysed overnight against 0.1 M NaCl, 50 mM tris-HCl pH 7.5; SAXS at 25 uM protein, protein-to-RNA mass ratio 4.5; cryo-TEM at 75 uM protein, mass ratio 6.0.

B1: cowpea chlorotic mottle virus (CCMV) capsid protein (natural protein)
chain: MSTVGTGKLTRAQRRAAARKNKRNTRVVQPVIVEPIASGQGKAIKAWTGYSVSKWTASCAAAEAKVTSAITISLPNELSSERNKQLKVGRVLLWLGLLPSVSGTVKSCVTETQTTAAASFQVALAVADNSKDVVAAMYPEAFKGITLEQLTADLTIYLYSSAALTEGDVIVHLEVEHVRPTFDDSFTPVY
notes: Free capsid protein stored in 0.5 M NaCl, 50 mM tris-HCl pH 7.5; also called CCMV capsid proteins; CCMV coat proteins; source: purified from CCMV virions from infected cowpea leaves (Vigna unguiculata); virions disassembled by dialysis, capsid proteins recovered by ultracentrifugation
As to B1, the binding result is on record as “binds”.
